In paper PMC6727773 (Molecular Biology of the Cell, 2019):

Biological target: T1, His-MPDZ-PDZ1-4 (aa 1-700) WT (human, UniProt O75970-3 1-700)
T1 sequence (looked up): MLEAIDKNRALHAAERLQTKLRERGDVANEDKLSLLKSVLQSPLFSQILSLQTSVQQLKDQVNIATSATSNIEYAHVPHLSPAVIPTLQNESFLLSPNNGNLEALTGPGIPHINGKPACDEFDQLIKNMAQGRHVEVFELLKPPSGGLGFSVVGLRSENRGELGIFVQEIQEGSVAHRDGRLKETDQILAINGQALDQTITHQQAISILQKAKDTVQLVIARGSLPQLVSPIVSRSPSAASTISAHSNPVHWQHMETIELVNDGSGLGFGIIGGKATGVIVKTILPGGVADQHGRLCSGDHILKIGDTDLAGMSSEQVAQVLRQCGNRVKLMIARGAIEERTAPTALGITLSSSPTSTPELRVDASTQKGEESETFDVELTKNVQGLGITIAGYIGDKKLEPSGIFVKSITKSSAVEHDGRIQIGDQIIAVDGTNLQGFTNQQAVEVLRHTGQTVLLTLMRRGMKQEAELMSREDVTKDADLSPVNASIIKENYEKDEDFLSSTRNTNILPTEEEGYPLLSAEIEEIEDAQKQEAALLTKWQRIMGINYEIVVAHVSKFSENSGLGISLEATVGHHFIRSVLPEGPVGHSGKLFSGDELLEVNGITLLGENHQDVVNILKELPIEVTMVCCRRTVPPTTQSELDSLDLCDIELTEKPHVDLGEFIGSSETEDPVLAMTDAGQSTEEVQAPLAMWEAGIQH
Test: pull-down

B1: GST-DAPLE (aa 1908-2028) (domain or fragment, human, UniProt Q9P219 1908-2028, looked up)
chain: IATAGAGAAAAGSGSNSQLLHFSPAAAPAARTKPKAPPRSGEVATITPVRAGLSLSEGDGVPGQGCSEGLPAKSPGRSPDLAPHLGRALEDCSRGSVSKSSPASPEPGGDPQTVWYEYGCV
binding result: binds
